Measurements: patent US6020166, “Nucleic acid encoding an altered telomere repeat binding factor 2” (The Rockfeller University)

T1: TRF1 purified from HeLa (Homo sapiens, UniProt P54274 SEQ:1-439)
T1 chain: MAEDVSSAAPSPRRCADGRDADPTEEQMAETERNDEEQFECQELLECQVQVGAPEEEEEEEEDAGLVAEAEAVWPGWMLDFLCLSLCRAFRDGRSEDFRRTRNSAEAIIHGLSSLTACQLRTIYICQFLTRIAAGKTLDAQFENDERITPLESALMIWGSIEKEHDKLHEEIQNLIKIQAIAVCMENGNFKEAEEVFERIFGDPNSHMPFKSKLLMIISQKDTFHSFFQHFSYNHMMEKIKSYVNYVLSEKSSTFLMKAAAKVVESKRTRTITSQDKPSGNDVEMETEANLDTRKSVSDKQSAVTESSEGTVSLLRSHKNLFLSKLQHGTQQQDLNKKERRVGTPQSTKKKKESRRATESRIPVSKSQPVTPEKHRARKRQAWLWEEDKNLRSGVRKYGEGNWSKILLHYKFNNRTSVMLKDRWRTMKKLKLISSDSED

T2: GFP-TRF1 (Homo sapiens, UniProt P54274 SEQ:1-439)
T2 chain: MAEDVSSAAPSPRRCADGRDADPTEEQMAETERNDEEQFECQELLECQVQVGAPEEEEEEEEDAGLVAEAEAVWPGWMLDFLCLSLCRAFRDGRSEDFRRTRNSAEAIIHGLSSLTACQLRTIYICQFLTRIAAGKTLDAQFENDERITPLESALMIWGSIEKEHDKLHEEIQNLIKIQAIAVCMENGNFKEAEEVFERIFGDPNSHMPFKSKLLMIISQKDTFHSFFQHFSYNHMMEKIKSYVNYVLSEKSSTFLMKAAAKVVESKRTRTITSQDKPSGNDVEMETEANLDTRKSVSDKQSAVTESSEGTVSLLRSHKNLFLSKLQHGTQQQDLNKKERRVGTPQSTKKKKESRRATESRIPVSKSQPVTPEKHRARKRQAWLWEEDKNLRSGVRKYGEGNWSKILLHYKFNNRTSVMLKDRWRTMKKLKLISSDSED

T3: TRF1 derivative II (Homo sapiens, UniProt P54274 SEQ:1-439)
T3 chain: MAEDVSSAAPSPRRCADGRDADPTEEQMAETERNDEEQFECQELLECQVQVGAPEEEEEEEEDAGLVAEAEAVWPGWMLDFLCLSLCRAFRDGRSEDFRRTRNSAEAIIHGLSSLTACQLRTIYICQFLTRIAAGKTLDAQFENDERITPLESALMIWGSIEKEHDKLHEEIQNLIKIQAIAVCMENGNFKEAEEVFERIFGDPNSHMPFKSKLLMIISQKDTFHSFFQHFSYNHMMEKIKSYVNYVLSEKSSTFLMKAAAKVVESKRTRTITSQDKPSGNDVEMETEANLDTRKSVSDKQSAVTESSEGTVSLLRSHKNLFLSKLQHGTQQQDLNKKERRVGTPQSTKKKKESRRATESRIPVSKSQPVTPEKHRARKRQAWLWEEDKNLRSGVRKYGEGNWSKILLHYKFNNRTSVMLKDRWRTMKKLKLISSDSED

T4: TRF1 full length (Homo sapiens, UniProt P54274 SEQ:1-439)
T4 chain: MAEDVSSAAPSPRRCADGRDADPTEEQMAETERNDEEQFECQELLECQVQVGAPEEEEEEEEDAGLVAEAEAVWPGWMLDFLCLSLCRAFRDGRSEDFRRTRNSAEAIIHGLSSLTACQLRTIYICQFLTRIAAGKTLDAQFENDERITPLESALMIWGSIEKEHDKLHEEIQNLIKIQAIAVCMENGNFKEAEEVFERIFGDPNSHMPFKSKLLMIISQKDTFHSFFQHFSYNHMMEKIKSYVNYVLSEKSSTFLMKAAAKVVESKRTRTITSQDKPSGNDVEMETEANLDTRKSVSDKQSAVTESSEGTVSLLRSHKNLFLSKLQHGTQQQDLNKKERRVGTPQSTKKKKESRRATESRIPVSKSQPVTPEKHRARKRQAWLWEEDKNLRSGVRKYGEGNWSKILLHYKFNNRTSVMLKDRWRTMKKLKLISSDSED

T5: TRF1 delta263-376 (Homo sapiens, internal deletion 263-376)
T5 chain: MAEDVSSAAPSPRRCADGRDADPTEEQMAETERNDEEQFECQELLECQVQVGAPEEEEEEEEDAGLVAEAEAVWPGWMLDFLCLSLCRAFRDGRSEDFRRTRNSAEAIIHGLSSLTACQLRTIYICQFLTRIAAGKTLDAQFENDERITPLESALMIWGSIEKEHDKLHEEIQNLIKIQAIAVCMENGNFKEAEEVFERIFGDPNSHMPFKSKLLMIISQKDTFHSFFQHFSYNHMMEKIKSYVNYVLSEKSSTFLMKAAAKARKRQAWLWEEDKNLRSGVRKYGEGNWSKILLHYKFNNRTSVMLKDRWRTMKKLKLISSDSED

B1: [TTAGGG]6 permuted probes (dsDNA)
DNA 1: TTAGGGTTAGGGTTAGGGTTAGGGTTAGGGTTAGGG
DNA 2: CCCTAACCCTAACCCTAACCCTAACCCTAACCCTAA
B2: [TTAGGG]12 probe (142 bp pTH12 fragment) (dsDNA)
DNA 1: TTAGGGTTAGGGTTAGGGTTAGGGTTAGGGTTAGGGTTAGGGTTAGGGTTAGGGTTAGGGTTAGGGTTAGGG
DNA 2: CCCTAACCCTAACCCTAACCCTAACCCTAACCCTAACCCTAACCCTAACCCTAACCCTAACCCTAACCCTAA

How the values were obtained:
TRF1 purified from HeLa [1] = biological target: T1, TRF1 purified from HeLa; experiment: EMSA; bend 64-66 degrees; competed by TTAGGG plasmid; details: chain copies: 2 stated; label: 32P
Experimental: (§1) DNA bending assay: PCR primers were used to generate DNA fragments with the composition indicated in FIG. 9 using pTH3, pTH6, and pTH12 [Zhong et al., 1992, supra] as templates, which contain 3, 6, and 12 tandem TTAGGG repeats, respectively. The products were end-labelled with ^32P-γ-ATP and polynucleotide kinase and the labelled fragments were isolated by preparative acrylamide gel-electrophoresis. Gel-shift reactions with partially purified HeLa TRF1 were performed as described above and the migration of the complexes was analyzed as described by Ferrari et al. [Ferrari et al., 1992, supra], and Thompson and Landy [*Nucl. Acids Res.*, 16:9687–9705 (1988)].
(§2) Labeled DNA probes were incubated with purified HeLa TRF1 under conditions in which one TRF1 dimer binds per probe molecule [Zhong et al., 1992, supra] and the mobility of the resulting complexes was analyzed on native polyacrylamide gels. The permuted sets of fragments had the same electrophoretic mobility as expected from their equal lengths. […] As shown in FIG. 9B for the 6mer and 12mer probes, an effect of the position of the hTRF1 binding site within the probes was observed. Slower migrating complexes were obtained when the binding site for hTRF1 was located more centrally in the DNA molecule, consistent with the induction of DNA bending upon hTRF1 binding.

TRF1 purified from HeLa [2] = biological target: T1, TRF1 purified from HeLa; experiment: EMSA; bend 57 and 59 degrees; competed by TTAGGG plasmid; details: chain copies: 2 stated; label: 32P
Experimental: as §1, §2

GFP-TRF1 = biological target: T2, GFP-TRF1; experiment: EMSA; binds as homodimer; details: tags: N-terminal GFP; TRF1 start codon ATG to ATT; chain copies: 2 stated; label: 32P
Description: (§3) Coupled in vitro transcription/translation: TRF1 deletion mutants used for the in vitro coupled transcription/translation experiments were cloned in the vector pET28(a) (Promega) in the NcoI and EcoRI sites using PCR-generated fragments. The GFP-TRF1 fusion product was cloned in pBluescriptKS+. PCR-directed mutagenesis was used to eliminate from this construct the start codon of the TRF1 gene by mutating it from ATG to ATT in order to suppress the occurrence of internal translation at this position. The GFP sequence was obtained from pS65T-C I (Clontech). Expression of TRF1 derivatives was achieved by using a rabbit reticulocyte lysate system (Promega) using reaction conditions essentially as described by the supplier. Briefly, between 0.2 to 1 µg of total plasmid DNA was used per 20 µl reaction containing T7 RNA polymerase in the presence of ^35S-methionine (to visualize products on SDS-PAGE) or without labeled amino acids (for gel-shift assays). After the transcription/translation reaction samples were diluted 1:5 with the addition of 80 µl of buffer D [Chong et al., 1995, supra]. Of this mixture, 0.5–5 µl was used in gel-shift reactions.
(§4) Gel-shift assays: Gel-shift assays were performed as described previously [Zhong et al., 1992, supra] using labeled restriction fragments as probes. […]

TRF1 derivative II = biological target: T3, TRF1 derivative II; experiment: EMSA; binds as homodimer; details: tags: N-terminal 43 aa polylinker-encoded addition; chain copies: 2 stated; label: 32P
Description: as §3, §4

TRF1 full length = biological target: T4, TRF1 full length; experiment: EMSA; details: label: 32P
Description: as §3, §4

TRF1 delta263-376 = biological target: T5, TRF1 delta263-376; experiment: EMSA; dimerization domain fused to Myb; details: label: 32P
Description: as §3, §4

TRF1 deltaN-376 = TRF1 deltaN-376 (Homo sapiens, UniProt P54274 SEQ:1-439, deletion of N-terminus to 376); experiment: EMSA; Myb domain without dimerization domain; details: label: 32P
Description: as §3, §4

TRF1 deltaN-28 = TRF1 deltaN-28 (Homo sapiens, UniProt P54274 SEQ:1-439, deletion of first 28 aa); experiment: EMSA; activity unaffected; details: label: 32P
Description: as §3, §4

TRF1 deltaN-46 = TRF1 deltaN-46 (Homo sapiens, UniProt P54274 SEQ:1-439, deletion of first 46 aa); experiment: EMSA; activity unaffected; details: label: 32P
Description: as §3, §4

TRF1 deltaN-196 = TRF1 deltaN-196 (Homo sapiens, UniProt P54274 SEQ:1-439, deletion of N-terminus to 196); experiment: EMSA; lacks dimerization domain; details: label: 32P
Description: as §3, §4

| Binder | binding result (TRF1 purified from HeLa [1]) | binding result (TRF1 purified from HeLa [2]) | binding result (GFP-TRF1) | binding result (TRF1 derivative II) | binding result (TRF1 full length) | binding result (TRF1 delta263-376) | binding result (TRF1 deltaN-376) | binding result (TRF1 deltaN-28) | binding result (TRF1 deltaN-46) | binding result (TRF1 deltaN-196) |
| --- | --- | --- | --- | --- | --- | --- | --- | --- | --- | --- |
| B1 | binds |  |  |  |  |  |  |  |  |  |
| B2 |  | binds | binds | binds | binds | no binding | no binding | binds | binds | no binding |
